Experimental data reported in PMC9304055, “Biochemical analysis of novel NAA10 variants suggests distinct pathogenic mechanisms involving impaired protein N-terminal acetylation” (Human Genetics, 2022).

Target: T1, NAA10 A6P-V5 (human, UniProt P41227-1 1-235, A6P)
T1 construct: NAA10, human, patient variant c.16G>C p.(A6P), made by site-directed mutagenesis of pcDNA3.1/NAA10-WT-V5; Same construct as m1 with the variant found in a patient; also called NAA10 p.(A6P); c.16G>C p.(Ala6Pro); source: HeLa, transfected, in lysate
T1 sequence (looked up): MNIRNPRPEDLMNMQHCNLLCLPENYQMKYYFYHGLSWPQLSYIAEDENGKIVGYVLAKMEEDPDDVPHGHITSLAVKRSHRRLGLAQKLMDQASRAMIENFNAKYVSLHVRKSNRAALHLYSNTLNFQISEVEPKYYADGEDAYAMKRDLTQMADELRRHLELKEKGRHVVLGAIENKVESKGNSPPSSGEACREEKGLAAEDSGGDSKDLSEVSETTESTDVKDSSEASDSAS
Test: co-IP; anti-V5 immunoprecipitation (Dynabeads Protein G) of NAA10-V5 from lysates of transfected HeLa cells; lysis buffer 50 mM Tris-HCl pH 8.0, 150 mM NaCl, 5 mM EDTA, 0.5% NP-40, 4 °C; co-precipitated NAA15 detected by Western blot
Conditions: partners not purified

B1: NAA15 (natural protein, human (endogenous in HeLa), UniProt Q9BXJ9 1-866, looked up)
chain: MPAVSLPPKENALFKRILRCYEHKQYRNGLKFCKQILSNPKFAEHGETLAMKGLTLNCLGKKEEAYELVRRGLRNDLKSHVCWHVYGLLQRSDKKYDEAIKCYRNALKWDKDNLQILRDLSLLQIQMRDLEGYRETRYQLLQLRPAQRASWIGYAIAYHLLEDYEMAAKILEEFRKTQQTSPDKVDYEYSELLLYQNQVLREAGLYREALEHLCTYEKQICDKLAVEETKGELLLQLCRLEDAADVYRGLQERNPENWAYYKGLEKALKPANMLERLKIYEEAWTKYPRGLVPRRLPLNFLSGEKFKECLDKFLRMNFSKGCPPVFNTLRSLYKDKEKVAIIEELVVGYETSLKSCRLFNPNDDGKEEPPTTLLWVQYYLAQHYDKIGQPSIALEYINTAIESTPTLIELFLVKAKIYKHAGNIKEAARWMDEAQALDTADRFINSKCAKYMLKANLIKEAEEMCSKFTREGTSAVENLNEMQCMWFQTECAQAYKAMNKFGEALKKCHEIERHFIEITDDQFDFHTYCMRKITLRSYVDLLKLEDVLRQHPFYFKAARIAIEIYLKLHDNPLTDENKEHEADTANMSDKELKKLRNKQRRAQKKAQIEEEKKNAEKEKQQRNQKKKKDDDDEEIGGPKEELIPEKLAKVETPLEEAIKFLTPLKNLVKNKIETHLFAFEIYFRKEKFLLMLQSVKRAFAIDSSHPWLHECMIRLFNTAVCESKDLSDTVRTVLKQEMNRLFGATNPKNFNETFLKRNSDSLPHRLSAAKMVYYLDPSSQKRAIELATTLDESLTNRNLQTCMEVLEALYDGSLGDCKEAAEIYRANCHKLFPYALAFMPPGYEEDMKITVNGDSSAEAEELANEI
notes: NAA15, large auxiliary subunit of the NatA complex, endogenous in HeLa cells, detected with NAA15 rabbit polyclonal antibody (previously called anti-NATH); also called auxiliary subunit of NatA; NATH; source: endogenous, HeLa lysate
fold less NAA15 co-immunoprecipitated than with NAA10 WT-V5: 5 fold
